In a protein production outcome set (Wang et al. 2014):

Assay: label from the status in PepcDB records

## MDLKTSYKGISLNPIYAGSSAVATVSENGKILATPVLDEINIIDLTPGSRKILHKISNEDEQEITALKLTPDGQYLTYVSQAQLLKIFHLKTGKVVRSMKISSPSYILDADSTSTLLAVGGTDGSIIVVDIENGYITHSFKGHGGTISSLKFYGQLNSKIWLLASGDTNGMVKVWDLVKRKCLHTLQEHTSAVRGLDIIEVPDNDEPSLNLLSGGRDDIINLWDFNMKKKCKLLKTLPVNQQVESCGFLKDGDGKRIIYTAGGDAIFQLIDSESGSVLKRTNKPIEELFIIGVLPILSNSQMFLVLSDQTLQLINVEEDLKNDEDTIQVTSSIAGNHGIIADMRYVGPELNKLALATNSPSLRIIPVPDLSGPEASLPLDVEIYEGHEDLLNSLDATEDGLWIATASKDNTAIVWRYNENSCKFDIYAKYIGHSAAVTAVGLPNIVSKGYPEFLLTASNDLTIKKWIIPKPTASMDVQIIKVSEYTRHAHEKDINALSVSPNDSIFATASYDKTCKIWNLENGELEATLANHKRGLWDVSFCQYDKLLATSSGDKTVKIWSLDTFSVMKTLEGHTNAVQRCSFINKQKQLISCGADGLIKIWDCSSGECLKTLDGHNNRLWALSTMNDGDMIVSADADGVFQFWKDCTEQEIEEEQEKAKLQVEQEQSLQNYMSKGDWTNAFLLAMTLDHPMRLFNVLKRALGESRSRQDTEEGKIEVIFNEELDQAISILNDEQLILLMKRCRDWNTNAKTHTIAQRTIRCILMHHNIAKLSEIPGMVKIVDAIIPYTQRHFTRVDNLVEQSYILDYALVEMDKLF
  protein production: failed

## MDLLAMNIPVSLQSKPPLWLLAELTYRCPLQCAYCSNPLDYAAVKQELSTDEWKDVFRQARAMGSVQLGFSGGEPLLRQDLSELIKYAHELGFYTNLITSGIGLTEQKIAEFSEAGLDHIQISFQASDPALSEILSGSRKAFQQKQAMALAVKKHRYPMVLNFVIHRFNIEQIDQIIELSLELNADYVELATCQFYGWAKLNQAALLPTPEQISYAQARVQAYRQYIDQHHLKTKLLLVAPDYYQERPKKCIGGWGQIFITVSPDGTVLPCQSAKDLPLEFPTIQDQSLKTIWNEAFAFNAFRGTDWMQEPCRSCPDKDKDLGGCRCQAYMLTKNMYATDPVCSKSPVHHQIVEARLQTQCSKPDISDLKLRNPQNSKLFFKRASDADSLL
  protein production: failed

## MDLLATRGDPVSDFSVGRVRGRHLAVPPIRHSAAPSNRHSEAPSSRARAADLDAIRLTGIAAVVVGHVWTSGPFTDALFAWHVPVFFILTGYLWKSGRTVRDEISRRSKTLLVPYVAWLAVLSVAFASVEYLRGGSLPVEALRNAVYGGAFAVRPYSAFWFVPVLFFTAVLFRWLERFPPWMAWIIAGLGLAASVFAGEVMAKTPLGIALAVPCLVFVLVGRALPAMVHRVRYKTAVGVGLVLAGVALTVGGVVQPLNMKDGDFGTVALSVVNASAISLGLILVFAALYRMVSPAVNRLTIQLASAGLVVVLTHAFFLYLLNTPASGSIFDAVVALAVPFALALLVLRSPLRRWLVG
  protein production: failed

## MDLLLKAALGAAVVVILAALAKTRNYYIAGLVPLFPTFALIAHYIVGKGRSLDDLKTTILFGMWSIIPYFVYLATLYVMVDRLRLEASLAVAAVAWLIAATILVSVWVRLHA
  protein production: failed

## MDLLQFLIDKNNVFIVAVAVVSGIMLMLPALRKGRAGAAVGTSEAIQMVNQRQAVWVDVRPTEQFQAGHIAQARSLPAADLEKKAGALPKNKPLIVVCEQGRDAARIAARLRSQGFAEVSVLEGGMRAWFAAGLPVTQKG
  protein production: failed

## MDLNFSKEEIAFRDEVRQFFKDNVPAKTRQKLIEGRHNTKEEMVEWYRILNKKGWAVTHWPKEYGGTGWSSVQHYIFNEELQAAPAPQPLAFGVSMVGPVIYTFGSEEQKKRFLPRIANVDDWWCQGFSEPGSGSDLASLKTKAEKKGDKWIINGQKTWTTLAQHADWIFCLCRTDPAAKKQEGISFILVDMKTKGITVRPIQTIDGGHEVNEVFFDDVEVPLENLVGQENKGWDYAKFLLGNERTGIARVGMSKERIRRIKQLAAQVESGGKPVIEDPKFRDKLAAVEIELKALELTQLRVVADEGKHGKGKPNPASSVLKIKGSEIQQATTELLMEVIGPFAAPYDVHGDDDSNETMDWTAQIAPGYFNNRKVSIYGGSNEIQRNIICKAVLGL
  protein production: failed

## MDLSVVVPTLNARDALLDALDALAAHAPAAEVVVANGPSVDGTSGTVRDHDAVDTLLELSERNLNAARNAGIAATNGTVVAFIGQDTHIQPGWTNAVADAIADGADAVTGPVHRTVEGGVTTESVDEATVSGRDVTFFDGANVAITRRALRALDGFDEALQTGAARDAAHRLAGMDRRVAWAPNACVLRTDADDVIHRLPEDADSSARGLKYRALAYRLTKNYGATAAITARVLRHAVGDAASVGGAVLRGDADLSTWVGAGLAVLPGLWRGSQAGLSARVADRTTTRNPNGVSTRMDRVHARHD
  protein production: failed

## MDLVEKVKELCLELEEENLAKAIERFITLTHGIEKTRGEAFAKASIYGFLEGILTTLKMKYSNEKIETLLNEVKTAREETEALLRKPRPPLLVDNDL
  protein production: not failed

## MDLWKLYQPGTPAAIVAWGQLGTAHAKTTYGLLRHSRLFKPVCVVAEHEGKMASDFVKPVRYDVPVVSSVEKAKEMGAEVLIIGVSNPGGYLEEQIATLVKKALSLGMDVISGLHFKISQQTEFLKIAHENGTRIIDIRIPPLELDVLRGGIYRKKIKVVGVFGTDCVVGKRTTAVQLWERALEKGIKAGFLATGQTGILIGADAGYVIDAVPADFVSGVVEKAVLKLEKTGKEIVFVEGQGALRHPAYGQVTLGLLYGSNPDVVFLVHDPSRDHFESFPEIPKKPDFEEERRLIETLSNAKVIGGVSLNGGFETDLPVYDPFNTDDLDEMLERAMVW
  protein production: not failed

## MDMGNQHPSISRLQEIQREVKAIEPQVVGFSGLSDDKNYKRLERILTKQLFEIDSVDTEGKGDIQQARKRAAQETERLLKELEQNA
  protein production: not failed

## MDMIKPDFQQIRRDKFRVEQMNDFPNTWTQQQHQNIRIPNNLDLIGILQNQISVPVQTDLYQDSAATFMNMPQSIHRDPQGPSNWRISDLSQPSTVNHGYDQAGIRPNNVADLLSDHFSSRNQILDRPLYVGRDSIPQSSMIRRSEVSCLDDNQKGCVTVACSGTGNEILRSSYDQGSSSGSYRGEFSFLPSLENQSVAHNASNWNHGPVNVTATSHTNSKKGFPLSLLSDIPPSRDVGNAAVLSTMNIHGPLGPFTGYASILKSSRFLEPAQKMLEEFCISYASKIISRSESTSMEDDDDDDDNLSGFSSSSEPLEPKNRLKKAKLLFLQEEVCKWYKLYNHQLQTVMSSFNTVAGLNTATPYISLALKRTSRSFKALRTAIAEHVKQISSHSSNGNNNNRFQKRQRSLIGNNVGFESQQQHIWRPQRGLPERAVAVLRAWLFDHFLHPYPTDSDKQMLATQTGLSRNQVSNWFINARVRLWKPMVEEIHTLETKAIKNADTSHNIEPSNRPNTVSSPSHEQTLTGLSGTKRSRLEYMDMVGFNRGNVSLTLELRRGVDNVIQTQTQDHQFGTGSQMFHDFVG
  protein production: failed

## MDMKAPIKVYMTKKLLGVKPSTSVQEASRLMMEFDVGSLVVINDDGNVVGFFTKSDIIRRVIVPGLPYDIPVERIMTRNLITANVNTPLGEVLRKMAEHRIKHILIEEEGKIVGIFTLSDLLEASRRRLETAISAE
  protein production: not failed

## MDMKKHGLSIGINRIESVFFVTLKAIGTLTHEDYLVITPMLEGALSQVDQPKVSLFLDATELDGWDLRAAWDDLKLGLKHKSEFERVAILGNKDWQEWAAKIGSWFIAGEIKYFEDEDDALKWLRY
  protein production: not failed

## MDNGDWGYMMTDPVTLNVGGHLYTTSLTTLTRYPDSMLGAMFGGDFPTARDPQGNYFIDRDGPLFRYVLNFLRTSELTLPLDFKEFDLLRKEADFYQIEPLIQCLNDPKPLYPMDTFEEVVELSSTRKLSKYSNPVAVIITQLTITTKVHSLLEGISNYFTKWNKHMMDTRDCQVSFTFGPCDYHQEVSLRVHLMEYITKQGFTIRNTRVHHMSERANENTVEHNWTFCRLARKTDD
  protein production: failed

## MDNKLPHYSRERLLGEGGMGKVYLAQDNQLQRQVAIKELTYQPKDDEVNHALKEARLLARVNHSNIIQIYNVHDEGDHISLVMEYFNSKTLTQFQQEAYTTLVQKLDLLQQLSAGLAAAHKNGVIHCDLKPSNILVNDQGQLKITDFGIALLASNESQNSEQTASNNPLQFGSLLFMSPEQIKLQAVDYRSDIFSFGIIAYQLMVGSHPFAYGNNGGSATDVAKRICEHTPEHAKNLMLNAPSALTDLLMEMLVKPLEQRTLTAEAIENRLKHIRTALLQAEISEQATMPLSSGSANIAGDDTGQYTQAVHTTLLSQNTQIVQPADNLQASWFKQNYKTVASIALLCLVMILFVGFYNTQEVETKQVVILKPTLADSSLMAPMQQDLVISAVEDALRQAVINTKNMYLISQREVNAITKEYPDDLNKLRQAVGASDIISTTLECDNSRCKVSFSRLVVNDNSSDNLSVKSEKNWLAPVDKFNAIFSTSQTQFASLFPEESEVNQSGLVQRPINENDYRNYIELYSQIKGQGEYSVESLTKLETLLTRSPYLYAAYGLFRETASNLYTDSRDEIHLKRLELVLQNSPPEYRYSVYHAIDSFFVAYKIKELDTAQQQIIEAKNKGASSFVLSELNAILFFSKGQYQKAADTFEEALVLRPSTTLLYNLAFSYWRMGDLSKAEDALNKMLEIIPGNYKAQQLQANIWLLQGKLELAITAYEKIVAALSNGRDLTNLSLAYALNKQYKKSLIYAKKAVDLSPKNRIRRLNLADIEFILGRVKSSNFNYKKVIDAPVDNNKYRYWLDIAQAQLQLNQQNLAIEALNKAKHLAPDNGEVAYTSALVYSVLGERVSAIFEVNKALANKVGSVWFNLPWFDSLCDDKEFELLMVKYNNQKRCRT
  protein production: failed

## MDNKVILVGGFHEIIELCEDNDIEIAGIIDNYLTNDTYWGYPIIGTDDKAKVLFETYKNVPVLITPDVPHVRYKLYHYYKSIGFQVASLISRDASISRSAIIGEGTIIQRGANLSSNIKIGQMVKVNTNANIMHDCLIGNYVTVAPNAVLLGKVEIDDKAYIGANATLLPSVKIGENVTVGAGSVVTKSVRLEHHHHHH
  protein production: failed

## MDNPKGIDGFTNLKEKDIATNENKLLRTITADKMIPAFLITPISSQIAGKVIAQVESDIFAHMGKAVLIPKGSKVIGYYSNNNKMGEYRLDIVWSRIITPHGINIMLTNAKGADIKGYNGLVGELIERNFQRYGVPLLLSTLTNGLLIGITSALNNRGNKEGATNFFGDYLLMQLMRQSGMGINQVVNQILRDKSKIAPIVVIREGSRVFISPNTDIFFPIPRENEVIAEFLK
  protein production: failed

## MDPERDALRIALYYALFSILWILSSDYLVALMFQPHVMVRLSVLKGSLFIILTSLLLYFLLKLYLRSLTDKERALRISEHKFRSLFMELPLGVVLMDTYGRILESNPAMGRFHGDSLDGMLIGEIHPDLEPGPDREFMVRMDGRWLRVVITRIEGGFLGIFEDLTDIKNSEEAARRSLEANRTLLAELHHRVKNNLQIISSLISIQSSKMPREHAEIMRSLQLRIKSIAVIHEMLLSSPESSSISFASYVSGLTGYLRDMYQSAAEFELDVPDVEFNIETAVPLGLIVGELVSNSLRHAFTDGGTIRISLEARDDGFILVVADNGGAFPITSAFRNQPASAWSLLRIW
  protein production: failed

## MDPLALALLPGIGPKRLLEVLKAEDPLGFLRERFPEAWRHLPEAEAQAERERGRAEALGVRLLGLWEEGFPEGLRALPQPPTHLYLKGELPPEREAVALVGTRRASPWALAFARRLARELAEAGLWVVSGLARGIDREAHLGALEAGGRTLGVLGSALDRVYPPENRPLAQRMDLLSEFPFGTGPKPEFFPRRNRLIAGLCRAVVVVEAPLDSGALITARHALELGKEVLAVPGRPTDERSLGANRLIQDGAYPVLSAEDVLSYLGMSARPKPLPGLSPEEEALYALLQEKKEALPEALAMALGIPPERVLSLLTLLELKGLARALPGGRYGPG
  protein production: failed

## MDPLVSFFDGMAQASWLRPVHDRLKKGTGSWANRAVLDVGCGTGRLLARGVHEAAHLAGVDLSKQMVLATEERLHEHKQCGRLTVVQGDAYDLPFADESFDVCLSTCVMFLLPEPERGMKEMIRVLNGAGVIGMLNPTNKMNHAAAKAYCKKSGITGFEEKTLLQWSNVSTRRHRYTAEQLTHFFKQHGAWVVTHELVLDGLAVVTVASWNKLEHHHHHH
  protein production: failed
